The text below walks through data of PMC4275181, “Evolution of RNA-Protein Interactions: Non-Specific Binding Led to RNA Splicing Activity of Fungal Mitochondrial Tyrosyl-tRNA Synthetases”.

For one series, the target named is T1, Sc CTD (Saccharomyces cerevisiae, UniProt P48527 414-492).
T1 sequence: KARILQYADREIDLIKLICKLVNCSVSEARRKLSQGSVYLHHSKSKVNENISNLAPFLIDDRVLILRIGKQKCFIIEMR
The series can be described thus: filter binding; 25C; n=1.6; 100 mM KCl, 5 mM MgCl2, 20 mM Tris-HCl pH 7.5, 5 mM DTT, 0.1 mg/ml BSA, 10% glycerol, 5 pM RNA, 30 min, 25C or 37C; nitrocellulose/nylon filter. The following applies: protein: recombinant; label: 5'-32P.

A further series deals with T2, CYT-18 NTDs (Neurospora crassa, UniProt P12063 33-417).
T2 sequence: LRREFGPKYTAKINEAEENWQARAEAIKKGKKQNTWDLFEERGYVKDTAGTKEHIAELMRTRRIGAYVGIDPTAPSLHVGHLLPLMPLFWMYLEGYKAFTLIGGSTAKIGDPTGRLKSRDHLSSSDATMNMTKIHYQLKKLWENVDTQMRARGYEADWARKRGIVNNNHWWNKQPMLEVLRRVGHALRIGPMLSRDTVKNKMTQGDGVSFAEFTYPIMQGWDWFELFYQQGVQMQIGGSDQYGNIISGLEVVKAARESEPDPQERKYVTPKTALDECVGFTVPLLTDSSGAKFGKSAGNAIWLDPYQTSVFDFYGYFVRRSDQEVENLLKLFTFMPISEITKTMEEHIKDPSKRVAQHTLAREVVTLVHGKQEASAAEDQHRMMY
In words: filter binding; 25C; 100 mM KCl, 5 mM MgCl2, 20 mM Tris-HCl pH 7.5, 5 mM DTT, 0.1 mg/ml BSA, 10% glycerol, 5 pM RNA, 30 min, 25C or 37C; nitrocellulose/nylon filter. To be noted: protein: recombinant; tags: N-terminal 6xHis, TEV-cleaved; extra N-terminal Gly; chain copies: 2; label: 5'-32P.

With UUUUUUUUUUUUUUUUUUUUUUUUUUUUUU (ssRNA) [poly(U)30], in the series with Sc CTD, the “apparent K (half saturation)” value was 1000 nM. In the series with CYT-18 NTDs, the binding result is listed as “no binding”.
